Data set [1] concerns the molecule itself. Put plainly: cryo-EM structure.
Data set [2] concerns the molecule itself. Put plainly: small-angle X-ray scattering.

These results are taken from publication PMC9992347 (Molecular cell, 2023).

Substitutions are numbered along the chain they refer to. Numbers in names are those of the source.

B1: SPOP^1-374 W22R (natural protein, human, UniProt O43791 1-374, looked up)
chain: MSRVPSPPPPAEMSSGPVAESRCYTQIKVVKFSYMWTINNFSFCREEMGEVIKSSTFSSGANDKLKWCLRVNPKGLDEESKDYLSLYLLLVSCPKSEVRAKFKFSILNAKGEETKAMESQRAYRFVQGKDWGFKKFIRRDFLLDEANGLLPDDKLTLFCEVSVVQDSVNISGQNTMNMVKVPECRLADELGGLWENSRFTDCCLCVAGQEFQAHKAILAARSPVFSAMFEHEMEESKKNRVEINDVEPEVFKEMMCFIYTGKAPNLDKMADDLLAAADKYALERLKVMCEDALCSNLSVENAAEILILADLHSADQLKTQAVDFINYHASDVLETSGWKSMVVSHPHLVAEAYRSLASAQCPFLGPPRKRLKQS
For B1, the binding result in data set [1] was “binds”.

B2: SPOP^1-374 W131G (natural protein, human, UniProt O43791 1-374, looked up)
chain: B1 chain with R22W, W131G
With B2, the binding result in data set [2] is recorded as “binds”.

B3: SPOP^1-374 E47K (natural protein, human, UniProt O43791 1-374, looked up)
chain: B1 chain with R22W, E47K
Consider B3, for which the binding result in data set [1] was “binds”.
